Test results published in patent US20150166606A1 (RA PHARMACEUTICALS, published 2015).
Where two headings read alike, the source gives them in different places. Bridge positions count the residues as written; N and C are the ends. Square brackets hold non-standard residues; d marks the D form. Ends that are not written are not given here. mXylyl = xylyl linker from dibromoxylene joining the two cysteines; NMeY = CN[C@@H](Cc1ccc(O)cc1)C(=O)O; NMeT = CN[C@H](C(=O)O)[C@@H](C)O; NMeS = CN[C@@H](CO)C(=O)O; Nva = CCC[C@H](N)C(=O)O

Columns and labels:
[1] = molecular target: T1, Activated human plasma kallikrein (Enzyme Research Laboratories, HPKa 1303) (human, UniProt P03952 20-638); experiment: cell-based or functional assay
[2] = molecular target: T1, Activated human plasma kallikrein …; experiment: cell-based or functional assay; remark: listed apart in the source

T1 sequence (P03952 20-638 limits assumed): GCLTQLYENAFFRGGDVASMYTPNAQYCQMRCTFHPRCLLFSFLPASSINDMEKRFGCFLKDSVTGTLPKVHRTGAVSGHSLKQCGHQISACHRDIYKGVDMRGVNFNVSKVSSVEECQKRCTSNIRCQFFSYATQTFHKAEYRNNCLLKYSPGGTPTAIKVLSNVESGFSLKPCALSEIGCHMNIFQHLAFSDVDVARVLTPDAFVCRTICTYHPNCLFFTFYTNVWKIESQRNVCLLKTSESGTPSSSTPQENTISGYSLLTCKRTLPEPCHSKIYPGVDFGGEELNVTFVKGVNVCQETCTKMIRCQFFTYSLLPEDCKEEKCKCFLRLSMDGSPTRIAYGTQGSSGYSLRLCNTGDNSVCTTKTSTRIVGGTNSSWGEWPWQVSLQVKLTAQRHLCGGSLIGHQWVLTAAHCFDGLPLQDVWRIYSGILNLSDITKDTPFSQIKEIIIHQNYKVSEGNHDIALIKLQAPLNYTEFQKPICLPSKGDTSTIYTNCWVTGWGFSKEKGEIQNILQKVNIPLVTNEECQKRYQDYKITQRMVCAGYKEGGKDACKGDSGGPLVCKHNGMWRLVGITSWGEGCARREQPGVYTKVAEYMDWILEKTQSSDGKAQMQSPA

Row | Binder | Avg. IC50 [1] | Avg. IC50 [2]
1 | Ac-ANYWSPWTEC-NH2 [R2138] | 22.3 nM | –
2 | Ac-CN[NMeY]W[NMeS]PW[NMeT]AC-NH2 (linker 1-10 via mXylyl) [R2223] | – | > 100000 nM
3 | Ac-CN[dY]WSPWTAC-NH2 (cysteine pairing not given here) [R2232] | – | > 1950 nM
4 | MCNYWSPWTECS-NH2 (cysteine pairing not given here) [R2110] | 3.5 nM | –
5 | Ac-CNY[dW]SPWTAC-NH2 (cysteine pairing not given here) [R2231] | – | 760 nM
6 | MCNYWSPWTS-NH2 [R2124] | 54.6 nM | –
7 | Ac-CNYWSPWAEC-NH2 (cysteine pairing not given here) [R2129] | 12.3 nM | –
8 | Ac-CNYWSPW[dT]AC-NH2 (cysteine pairing not given here) [R2227] | – | 323 nM
9 | Ac-WSPWTECSA-NH2 [R2119] | > 100000 nM | –
10 | Ac-CNYWSPATEC-NH2 (cysteine pairing not given here) [R2130] | 5300 nM | –
11 | Ac-CNYWSPWTEA-NH2 [R2127] | 35.6 nM | –
12 | Ac-CNYWSAWTEC-NH2 (cysteine pairing not given here) [R2137] | 57.2 nM | –
13 | Ac-PWTECSA-NH2 [R2121] | 10300 nM | –
14 | Ac-ANYWSPWTAA-NH2 [R2145] | 58.8 nM | –
15 | Ac-CNYWSPWTAC-NH2 (linker 1-10 via mXylyl) [R2136] | 6.1 nM | –
16 | Ac-CNYWSPWT-NH2 [R2135] | 144 nM | –
17 | Ac-[Nva]NYWSPWTAC-NH2 (SMILES CCC[C@H](NC(C)=O)C(=O)N[C@@H](CC(N)=O)C(=O)N[C@@H](Cc1ccc(O)cc1)C(=O)N[C@@H](Cc1c[nH]c2ccccc12)C(=O)N[C@@H](CO)C(=O)N1CCC[C@H]1C(=O)N[C@@H](Cc1c[nH]c2ccccc12)C(=O)N[C@H](C(=O)N[C@@H](C)C(=O)N[C@@H](CS)C(N)=O)[C@@H](C)O) [R2139] | 65.3 nM | –
18 | MCNYWSPWT-NH2 [R2113] | 88.8 nM | –
19 | Ac-CNYWSPWTAC-NH2 (cysteine pairing not given here) [R2128] | 2.5 nM | –
20 | MCNYWSPWTE-NH2 [R2112] | 2.4 nM | –
21 | Ac-CNYWSPWTC-NH2 (cysteine pairing not given here) [R2134] | 86.7 nM | –
22 | Ac-CNYWSPWTECSA-NH2 (cysteine pairing not given here) [R2116] | 3.5 nM | –
23 | MCNYWSPWTEC-NH2 (cysteine pairing not given here) [R2111] | 3.8 nM | –
24 | MCNYWSPWTSE-NH2 [R2123] | 25.5 nM | –

Further lines, results first:

Row | Avg. IC50 [1] | Avg. IC50 [2] | Binder
25 | 30.4 nM | – | MCNYWSPWTSEI-NH2 [R2122]
26 | 1.4 nM | – | Ac-CNYWSPWTEC-NH2 (cysteine pairing not given here) [R2126]
27 | 48.4 nM | – | Ac-ANYWSPWTAC-NH2 [R2143]
28 | 349 nM | – | MCNYWSPW-NH2 [R2114]
29 | 105 nM | – | Ac-CNYWSPWTA[Nva]-NH2 (SMILES CCC[C@H](NC(=O)[C@H](C)NC(=O)[C@@H](NC(=O)[C@H](Cc1c[nH]c2ccccc12)NC(=O)[C@@H]1CCCN1C(=O)[C@H](CO)NC(=O)[C@H](Cc1c[nH]c2ccccc12)NC(=O)[C@H](Cc1ccc(O)cc1)NC(=O)[C@H](CC(N)=O)NC(=O)[C@H](CS)NC(C)=O)[C@@H](C)O)C(N)=O) [R2140]
30 | 10.6 nM | – | Ac-CNYWSPWTECSA-NH2 (linker 1-10 via mXylyl) [R2125]
31 | – | > 10600 nM | Ac-CNYWSP[dW]TAC-NH2 (cysteine pairing not given here) [R2228]
32 | 39.1 nM | – | Ac-CNAWSPWTEC-NH2 (cysteine pairing not given here) [R2133]
33 | – | 305 nM | Ac-C[dN]YWSPWTAC-NH2 (cysteine pairing not given here) [R2233]
34 | 9.2 nM | – | MCNYWSPWTSEIC-NH2 (linker 2-13 via mXylyl) [R2109]
35 | 17.5 nM | – | Ac-CNYWSPWAAC-NH2 (cysteine pairing not given here) [R2146]
36 | – | > 100000 nM | Ac-CN[NMeY]W[NMeS]PW[NMeT]AC-NH2 (disulfide 1-10) [R2224]
37 | 128 nM | – | MSNYWSPWTESSA-NH2 [R2107]
38 | – | 222 nM | Ac-CNYWSPWT[dA]C-NH2 (cysteine pairing not given here) [R2226]
39 | > 17300 nM | – | MCNYWSP-NH2 [R2115]
40 | 127 nM | – | Ac-CNYWAPWTEC-NH2 (cysteine pairing not given here) [R2131]
41 | > 100000 nM | – | Ac-SPWTECSA-NH2 [R2120]
42 | > 100000 nM | – | Ac-YWSPWTECSA-NH2 [R2118]
43 | 43.9 nM | – | Ac-NYWSPWTECSA-NH2 [R2117]
44 | – | > 14300 nM | Ac-CNYWS[dP]WTAC-NH2 (cysteine pairing not given here) [R2229]
45 | 157 nM | – | Ac-[Nva]NYWSPWTA[Nva]-NH2 (SMILES CCC[C@H](NC(=O)[C@H](C)NC(=O)[C@@H](NC(=O)[C@H](Cc1c[nH]c2ccccc12)NC(=O)[C@@H]1CCCN1C(=O)[C@H](CO)NC(=O)[C@H](Cc1c[nH]c2ccccc12)NC(=O)[C@H](Cc1ccc(O)cc1)NC(=O)[C@H](CC(N)=O)NC(=O)[C@H](CCC)NC(C)=O)[C@@H](C)O)C(N)=O) [R2141]
46 | 4110 nM | – | Ac-CNYASPWTEC-NH2 (cysteine pairing not given here) [R2132]
47 | – | > 6580 nM | Ac-CNYW[dS]PWTAC-NH2 (cysteine pairing not given here) [R2230]
48 | 95.5 nM | – | Ac-CNYWSPWTAA-NH2 [R2144]
49 | – | 8.1 nM | Ac-CNYWSPWTA[dC]-NH2 (cysteine pairing not given here) [R2225]
50 | – | 926 nM | CNYWSPWTAA (also: Cyclo(1,10): ring between residues 1 and 10, bond kind not given here) [R2222]
51 | 4.1 nM | – | MCNYWSPWTECSA-NH2 (linker 2-11 via mXylyl) [R2108]
52 | 2.7 nM | – | Ac-CNYWSPWTAC-NH2 (disulfide 1-10; SMILES CC(=O)N[C@H]1CSSC[C@@H](C(N)=O)NC(=O)[C@H](C)NC(=O)[C@H]([C@@H](C)O)NC(=O)[C@H](Cc2c[nH]c3ccccc23)NC(=O)[C@@H]2CCCN2C(=O)[C@H](CO)NC(=O)[C@H](Cc2c[nH]c3ccccc23)NC(=O)[C@H](Cc2ccc(O)cc2)NC(=O)[C@H](CC(N)=O)NC1=O) [R2142]
